Patent US20230235004A1 (published 2023)
Read-outs that look alike come from different tables or passages of the source.

T1: human MAdCAM expressed on cells (human, UniProt Q13477 19-382)
T1 construct: whole, on cells
T1 sequence (looked up): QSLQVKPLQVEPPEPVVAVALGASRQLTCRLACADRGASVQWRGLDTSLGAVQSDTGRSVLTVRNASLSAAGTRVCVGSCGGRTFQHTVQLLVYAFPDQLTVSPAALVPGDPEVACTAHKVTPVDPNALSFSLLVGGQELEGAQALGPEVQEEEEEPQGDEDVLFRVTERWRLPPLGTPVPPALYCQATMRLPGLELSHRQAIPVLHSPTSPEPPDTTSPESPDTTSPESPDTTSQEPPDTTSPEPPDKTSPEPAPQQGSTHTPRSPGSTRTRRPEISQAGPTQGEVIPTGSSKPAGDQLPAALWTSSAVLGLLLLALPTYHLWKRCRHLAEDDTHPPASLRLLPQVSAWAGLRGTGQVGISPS

T2: mouse MAdCAM expressed on cells (mouse, UniProt Q61826 22-405)
T2 construct: whole, on cells
T2 sequence (looked up): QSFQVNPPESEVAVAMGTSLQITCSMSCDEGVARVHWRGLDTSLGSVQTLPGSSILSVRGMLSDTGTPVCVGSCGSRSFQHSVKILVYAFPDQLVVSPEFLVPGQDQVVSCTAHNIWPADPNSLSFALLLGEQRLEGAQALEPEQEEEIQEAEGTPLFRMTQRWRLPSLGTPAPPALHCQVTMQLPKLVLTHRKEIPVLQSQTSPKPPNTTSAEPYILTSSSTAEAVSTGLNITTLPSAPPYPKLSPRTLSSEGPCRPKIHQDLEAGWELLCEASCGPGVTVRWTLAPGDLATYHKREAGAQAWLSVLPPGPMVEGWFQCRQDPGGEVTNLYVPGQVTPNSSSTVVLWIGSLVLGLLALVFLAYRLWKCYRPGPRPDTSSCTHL

T3: recombinant mouse MAdCAM-1 (mouse, UniProt Q61826 22-364, limits assumed)
T3 construct: also called mMAdCAM-1
T3 sequence (looked up): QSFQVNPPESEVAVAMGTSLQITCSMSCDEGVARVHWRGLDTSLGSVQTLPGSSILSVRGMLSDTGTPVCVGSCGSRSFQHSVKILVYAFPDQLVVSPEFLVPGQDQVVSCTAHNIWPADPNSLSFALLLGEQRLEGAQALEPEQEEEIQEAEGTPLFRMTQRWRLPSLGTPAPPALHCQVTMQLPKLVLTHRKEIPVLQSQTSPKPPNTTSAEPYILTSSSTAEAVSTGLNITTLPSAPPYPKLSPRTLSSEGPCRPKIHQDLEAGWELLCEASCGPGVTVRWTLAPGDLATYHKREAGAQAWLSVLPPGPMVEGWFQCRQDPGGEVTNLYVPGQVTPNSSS

T4: human MAdCAM protein (human, UniProt Q13477 19-317, limits assumed)
T4 construct: also called soluble monomeric human MAdCAM; recombinant human MAdCAM
T4 sequence (looked up): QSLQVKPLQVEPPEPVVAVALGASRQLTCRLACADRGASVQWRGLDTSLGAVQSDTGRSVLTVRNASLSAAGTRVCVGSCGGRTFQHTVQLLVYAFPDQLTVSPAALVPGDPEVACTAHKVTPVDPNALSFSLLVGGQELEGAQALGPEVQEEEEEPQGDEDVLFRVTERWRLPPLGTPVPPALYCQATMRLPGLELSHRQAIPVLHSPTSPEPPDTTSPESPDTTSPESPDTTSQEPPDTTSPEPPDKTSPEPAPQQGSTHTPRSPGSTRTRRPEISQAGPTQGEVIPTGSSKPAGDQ


Legend:
[1] = biological target: T1, human MAdCAM expressed on cells; assay: cell binding
[2] = biological target: T2, mouse MAdCAM expressed on cells; assay: cell binding
[3] = biological target: T3, recombinant mouse MAdCAM-1; assay: Octet
human MAdCAM protein [4] = biological target: T4, human MAdCAM protein; assay: Octet
human MAdCAM protein [5] = biological target: T4, human MAdCAM protein; assay: Octet; remark: listed apart in the source
[6] = biological target: T1, human MAdCAM expressed on cells; assay: cell binding; remark: listed apart in the source
[7] = biological target: T2, mouse MAdCAM expressed on cells; assay: cell binding; remark: listed apart in the source
[8] = biological target: T3, recombinant mouse MAdCAM-1; assay: Octet; remark: listed apart in the source

Row | Binder | binding result [1] | binding result [2] | binding result [3] | binding result (human MAdCAM protein [4]) | binding result (human MAdCAM protein [5]) | binding result [6] | binding result [7] | binding result [8]
1 | MAdCAM Antibody Table 2 clone 74 (antibody, V domains shown, IgG format) VH: QVQLVQSGAEVKKPGASVKVSCKASGYTFTGYYMHWVRQAPGQGLEWMGIINPSGGNTKYAQKFQGRVTMTRDTSTSTVYMELSSLRSEDTAVYYCTTADYYYYMDVWGKGTTVTVSS VL: DIQMTQSPSSLSASVGDRVTITCRASQGISNYLAWYQQKPGKAPKLLIYAASSLQSGVPSRFSGSGSGTDFTLTISSLQPEDFATYYCQQYYSNADFGQGTKVEIK | binds | no binding | no binding | binds |  |  |  | 
2 | MAdCAM Antibody Table 2 clone 65 (antibody, V domains shown, IgG format) VH: QVQLVQSGAEVKKPGASVKVSCKASGYTFTSYDINWVRQAPGQGLEWMGWMNPNSGNTGYAQKFQGRVTMTRDTSTSTVYMELSSLRSEDTAVYYCAKDSDYSNLLWDYWGQGTLVTVSS VL: DIQMTQSPSSLSASVGDRVTITCRASQDITNDLGWYQQKPGKAPKLLIYQASSLESGVPSRFSGSGSGTDFTLTISSLQPEDFATYYCQQSYTIPLTFGQGTKVEIK | binds | no binding | no binding | binds |  |  |  | 
3 | MAdCAM Antibody Table 2 clone 79 (antibody, V domains shown, IgG format) VH: EVQLLESGGGLVKPGGSLRLSCAASGFTFDDYAMHWVRQAPGKGLEWVASITSSSAFIDYAASVKGRFTISRDDSKNTLYLQMNSLKTEDTAVYYCARERVDWNSYFDLWGRGTLVTVSS VL: EIVMTQSPATLSVSPGERATLSCRASQGISNSYLAWYQQKPGQAPRLLIYGASTRATGIPARFSGSGSGTEFTLTISSLQSEDFAVYYCQQYYTYPPTFGPGTKVDIK | binds | binds | binds | binds |  |  |  | 
4 | MAdCAM antibody Table 1 clone 65 (scFv) scFv: QVQLVQSGAEVKKPGASVKVSCKASGYTFTRHWIHWVRQAPGQGLEWMGWINVKTGGAGYAQKFQGRVTMTRDTSTSTVYMELSSLRSEDTAVYYCARESSGWYGTDVWGQGTTVTVSSGGGGSGGGGSGGGGSGGGGSDIQMTQSPSSLSASVGDRATITCRASQSISNYLAWYQQKPGKAPKLLIYAASSLQSGVPSRFSGSGSGTDFTLTISSLQPEDFATYYCQQSNSFPLTFGGGTKVEIK |  |  |  |  | binds | binds | binds | 
5 | MAdCAM antibody Table 1 clone 64 (scFv) scFv: EVQLLESGGGLVKPGGSLRLSCAASGFAFSSHWMHWVRQAPGKGLEWVAGTSGSGESRDYADFVKGRFTISRDDSKNTLYLQMNSLKTEDTAVYYCARETYYYYYMDVWGKGTTVTVSSGGGGSGGGGSGGGGSGGGGSDIQMTQSPSSLSASVGDRVTITCRASQGISNYLAWYQQKPGKAPKLLIYDAANLEGGVPSRFSGSGSGTDFTLTISSLQPEDFATYYCQQSDIFPPTFGQGTKVEIK |  |  |  |  | binds | binds | binds | 

Other lines, results leading:

Row | binding result [1] | binding result [2] | binding result [3] | binding result (human MAdCAM protein [4]) | binding result (human MAdCAM protein [5]) | binding result [6] | binding result [7] | binding result [8] | Binder
6 | binds | no binding | no binding | binds |  |  |  |  | MAdCAM Antibody Table 2 clone 22 (antibody, V domains shown, IgG format) VH: EVQLLESGGGLVQPGGSLRLSCAASGFTFDDYAMHWVRQAPGKGLEWVSGISWNSGSIGYADSVKGRFTISRDNSKNTLYLQMNSLRAEDTAVYYCAKDIVAAGHYYYGMDVWGQGTTVTVSS VL: DIQMTQSPSSLSASVGDRVTITCQASQDISNYLNWYQQKPGKAPKLLIYDASNLETGVPSRFSGSGSGTDFTLTISSLQPEDFATYYCQQSYSTPLTFGGGTKVEIK
7 | binds | no binding | no binding | binds |  |  |  |  | MAdCAM Antibody Table 2 clone 23 (antibody, V domains shown, IgG format) VH: EVQLLESGGGLVQPGGSLRLSCAASGFTFDDYAMHWVRQAPGKGLEWVSYIDTSSSHLYYADSVKGRFTISRDNSKNTLYLQMNSLRAEDTAVYYCARDEAAAGYYGMDVWGQGTTVTVSS VL: DIQMTQSPSSLSASVGDRVTITCQAGQDISNYLNWYQQKPGKAPKLLIYDASNLETGVPSRFSGSGSGTDFTLTISSLQPEDFATYYCQQTYSTPITFGQGTKLEIK
8 |  |  |  |  | binds | binds | binds |  | MAdCAM antibody Table 1 clone 66 (scFv) scFv: EVQLLESGGGLVQPGGSLRLSCAASGFTFSSYWMHWVRQAPGKGLEWVAAISYDGKYKDYEDSVKGRFTISRDNSKNTLYLQMNSLRAEDTAVYYCARENKQWLASFDYWGQGTLVTVSSGGGGSGGGGSGGGGSGGGGSDIQMTQSPSSLSASVGDRVTITCQASQDISNFVNWYQQKPGKAPKLLIYAANLRSGVPSRFSGSGSGTDFTLTISSLQPEDFATYYCQQANSFPVTFGPGTKVDIK
9 | binds | no binding | no binding | binds |  |  |  |  | MAdCAM Antibody Table 2 clone 46 (antibody, V domains shown, IgG format) VH: EVQLLESGGGLVQPGGSLRLSCAASGFSFSSYTMNWVRQAPGKGLEWVSFITSSSRTIYYADSVKGRFTISRDNSKNTLYLQMNSLRAEDTAVYYCARDRRGDYGDSWYFDLWGRGTLVTVSS VL: EIVMTQSPATLSVSPGERATLSCRASQSVRNYLAWYQQKPGQAPRLLIYGASTRATGIPARFSGSGSGTEFTLTISSLQSEDFAVYYCQQYGSSPLTFGGGTKVEIK
10 |  |  |  |  | binds | binds | binds |  | MAdCAM antibody Table 1 clone 61 (scFv) scFv: EVQLLESGGGLVQPGGSLRLSCAASEFTFSNAWMSWVRQAPGKGLEWVASISSTSAYIDYADSVKGRFTISRDNSKNTLYLQMNSLRAEDTAVYYCAREVVGATTFDYWGQGTLVTVSSGGGGSGGGGSGGGGSGGGGSDIQMTQSPSSLSASVGDRVTITCRASQSISTWLAWYQQKPGKAPKLLIYAASSLQSGVPSRFSGSGSGTDFTLTISSLQPEDFATYYCQQANAFPPTFGQGTRLEIK
11 |  |  |  |  | binds | binds | binds |  | MAdCAM antibody Table 1 clone 1 (scFv) scFv: EVQLLESGGGLVQPGGSLRLSCAASGFTFSSYGMHWVRQAPGKGLEWVAVISDDGSDKYYADSVKGRFTISRDNSKNTLYLQMNSLRAEDTAVYYCTTSKYYYYYGMDVWGQGTTVTVSSGGGGSGGGGSGGGGSGGGGSDIQMTQSPSSLSASVGDRVTITCQASQDISKSLNWYQQKPGKAPKLLIYAASSLQSGVPSRFSGSGSGTDFTLTISSLQPEDFATYYCQQGYSTPLTFGGGTKVEIK
12 | binds | binds | binds | binds |  |  |  |  | MAdCAM Antibody Table 2 clone 75 (antibody, V domains shown, IgG format) VH: EVQLLESGGGLVQPGGSLRLSCAASGFTFSDFWMHWVRQAPGKGLEWISYISGDSGYTNYADSVKGRFTISRDNSKNTLYLQMNSLRAEDTAVYYCARDRPYYYYMDVWGKGTTVTVSS VL: DIQMTQSPSSLSASVGDRVTITCRASQSVSRSLAWYQQKPGKAPKLLIYAASSLQSGVPSRFSGSGSGTDFTLTISSLQPEDFATYYCQQYKSYPVTFGQGTKVEIK
13 |  |  |  |  | binds | binds | no binding | no binding | MAdCAM antibody Table 1 clone 19 (scFv) scFv: EVQLLESGGGLVQPGGSLRLSCAASGFTFDDYAMHWVRQAPGKGLEWVSGISWNSGSIGYADSVKGRFTISRDNSKNTLYLQMNSLRAEDTAVYYCAKDIVAAGHYYYGMDVWGQGTTVTVSSGGGGSGGGGSGGGGSGGGGSDIQMTQSPSSLSASVGDRVTITCQASQDISNYLNWYQQKPGKAPKLLIYDASNLETGVPSRFSGSGSGTDFTLTISSLQPEDFATYYCQQSYSTPLTFGGGTKVEIK
